Laboratory results from the nanobody polyreactivity screen of Harvey et al. (2022).

Experiment: yeast display, Sf9 membrane polyspecificity reagent, FACS + sequencing; frameworks hold sequencing errors
Method in brief: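 After 36–48 hours of galactose induction, yeast (Saccharomyces cerevisiae BJ5465) displaying a synthetic nanobody library were stained at 4 °C for 1 hour with 10% biotinylated, detergent-solubilized Sf9 membrane reagent. Streptavidin microbeads enriched the stained cells before FACS sorting into low and high (top ~1%) gates on anti-HA and streptavidin fluorescence. Each clone's polyreactivity label reflects its gate of origin.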

Row | Sequence | polyreactivity (PSR sort gate)
1 | QVQLVESGGGLVQAGGSLRLSCAASGSTSPAYAMGWYRQAPGKERELVAVITGSGASTYYADSVKGRFTISRDNAKNTVYLQMNSLKPEDTAVYYCAADVGFGVVFYDYWGQGTQVTVSS | low polyreactivity
2 | QVQLVESGGGLVQAGGSLRLSCAASGSTSQINAMGWYRQAPGKERELVAAITWSTGTTYYADSVKGRFTISRDNAKNTVYLQMTSLKPEDTAVYYCAAERAILSSDKQSLWRFDYWGQGTQVTVSS | low polyreactivity
3 | QVQLVESGGGLVQAGGSLRLSCAASGSTSQLYAMGRYRQAPGKERELVAAITVSGDSTYYADSVKGRFTISRDNAKNTVYLQMNSLKPEDTAVYYCAADVMVQTVPGGYDDWGQGTQVTVSS | low polyreactivity
4 | QVQLVESGGGLVQAGGSLRLSCAASGSTSQRYSMGWYRQAPAKEREVVAGITTSGGRTYYADSVKGRFTISRDNAKNTVYLQMNSLKPEDTAVYYCAARTQIWKYRGYYSWGQGTQVTVSS | high polyreactivity
5 | QVQLVESGGGLVQAGGSLRLSCAASGSTSRINAMGWYRQAPGKERELVAGIRANGGRTYYADSVKGRFTISRDNAKNTVYLQMNSLKPEDTAVYYCNKRNWPAEDSWGQGTQVTVSS | high polyreactivity
6 | QVQLVESGGGLVQAGGSLRLSCAASGSTSRTYAMGWYRQAPGKERELVAAINSGGTTYYADSVKGRFTISRDNAKNTVYLQMNSLKPEDTAVYYCARRDFWWSRRIFGYWGQGTQVTVSS | high polyreactivity
7 | QVQLVESGGGLVQAGGSLRLSCAASGSTSRYALGWYIQAPGNERELVAAITRSGGTTYYADSVKGRFTISRDNAKNTVYLQMNSLIPEDTAVYYCATSDRQVKYDYWGQGTQVTVSS | low polyreactivity
8 | QVQLVESGGGLVQAGGSLRLSCAASGSTSRYNVMGWYRQAPGKERELVAAISSRGVSTYYADSVKGRFTISRDNAKKTVYLQMNSLKPEDTAVYYCAARYGGPSHYGYWGQGTQVTVSS | high polyreactivity
9 | QVQLVESGGGLVQAGGSLRLSCAASGSTSSPNAMGWNTQAPGKEREFVAAISRSGGSTYYADSVKGRFTISRDNAKNTVYLQMNSLKPEDSAVYYCAATVTVFYTRYYYWGQGTHVTVSS | high polyreactivity
10 | QVQLVESGGGLVQAGGSLRLSCAASGSTSSSKAMGWYREAPGKERELVATITNGSGTSYADSVKGRFTISRDNAKNTVYLQMNSLKPEDTAVYYCYVSSLNSYTSGTTYWGLDYWGQGTQVTVSS | low polyreactivity
11 | QVQLVESGGGLVQAGGSLRLSCAASGSTSSVYDMGWYRQEPGKERELVAGIDYSAGSTYYADSVKGRFTISRDNAKNTVYLQMNSLKPEDTAVYYCDADAAYYSGYDYWGQGTQVTVSS | low polyreactivity
12 | QVQLVESGGGLVQAGGSLRLSCAASGSTSTGNAMGWYRKAPGKERELVAAITSGGNTYYADSVKGRFTISRDNAKNTVYLQMNSLKPEDTAVYYCAAASPGPWRYDYWGQGTQVTVSS | high polyreactivity
13 | QVQLVESGGGLVQAGGSLRLSCAASGSTSVGNAMGWYRQAPGKERELVAAMSRIGGTTYYADSVKGRFTISRDNAKNTVYLQMNSLKPEDTAVYYCNVLKRYWSGRVDYWGQGTQVTVSS | high polyreactivity
14 | QVQLVESGGGLVQAGGSLRLSCAASGSTSVKYAMGWYRQAPGKERELVAAIRKRGDSTYYADSVKGRFTISRDNAKNTVYLQMNSLKPEDTAVYYCAAQYLRGRGYWGQGTQVTVSS | low polyreactivity
15 | QVQLVESGGGLVQAGGSLRLSCAASGSTSVKYAMGWYRQAPGKERELVAAIRKRGDSTYYADSVKGRFTISRDNAKYSVYLQMNSLKAEDTAVYYCAAQYLRGRGYWGQGTQVTVSS | low polyreactivity
16 | QVQLVESGGGLVQAGGSLRLSCAASGSTSVPYTMGWYRQAPGKERELVAAISSSGGTTNYAVSVKGRFTISRDNAKNTVSLQMNSLKPEDTAVYYCAAEYYQWVAYSWNEMYYWGQGTQVTVSS | low polyreactivity
17 | QVQLVESGGGLVQAGGSLRLSCAASGSTSVQYAMGWYRQAPGKERELVAAIDRSGGSTSYADSVKGRFTISRDNAKNTVYLQMNTLKPEDTAVYYCNADPVRSTYSYDYWGQGTQVTVSS | low polyreactivity
18 | QVQLVESGGGLVQAGGSLRLSCAASGSTSVTNAMGWYRQAPGKEREFFATINYSGTSTYYADSVKGRFTISRDNAKNTVYLQMNSLNPEDTAVYYCYAHDFGFYRFSLPGYDYWGQGTQVTVSS | low polyreactivity
19 | QVQLVESGGGLVQAGGSLRLSCAASGSTSYFNVMGWYRQAPGKERELVAAISWSGGSTYADSVKGRFTISRDNAKNTVYLQMNSLKPEDTAVYYCNKDYGYVQLRFYGPGYYWGQGTQVTVSS | low polyreactivity
20 | QVQLVESGGGLVQAGGSLRLSCAASGSTSYGYAMGWYRQAPGKERELVAAISRTDRTYYADSVKGRFTISRDNAKNTVYLQMNSLKPEDTAVYYCTAVLVGRAEYYYWGQGTQVTVSS | high polyreactivity
21 | QVQLVESGGGLVQAGGSLRLSCAASGSTSYIYAMGWYRQAPGKERELVAAISKSGGRTYYADSVKGRFTISRDNAKNTVYLQMNSLKPEDTAVYYCAAVPGRTAEDYGEDYWGQGTQVTVSS | high polyreactivity
22 | QVQLVESGGGLVQAGGSLRLSCAASGSTSYNMGWYRQAPGKERELVAAISYRGGRTYYADSVKGRFTISRDNAKNTVYLQMNSLKPEDTAVYYCAKGIFDTFDSWGQGTQVTVSS | low polyreactivity

Row | Sequence | polyreactivity (PSR sort gate)
23 | QVQLVESGGGLVQAGGSLRLSCAASGSTVDWNAMGWYRQAPGKERELVAGITFRSGSTYYADSVKGRFTISRDNAKNTVYLQMNSLKPEDTAVYYCNVKLYYYYFRMYYWGQGTQVTVSS | low polyreactivity
24 | QVQLVESGGGLVQAGGSLRLSCAASGSTVEYNAMGWYRQAPGKERELVASSTNYADSVKGRFTISRDNAKNTVYLQMNSLKPEDTAVYYCAASSLPHDSYRHSYLYEYWGQGTQVTVSS | low polyreactivity
25 | QVQLVESGGGLVQAGGSLRLSCAASGSTVEYYAMGWYRQAPGKERELFAAISSGPSTTYADSVKGRFTISRDNAKNTVYLQMYSLKREDTAVYYCARLDGTTQALFGYDYWGQGTQVTVSS | low polyreactivity
26 | QVQLVESGGGLVQAGGSLRLSCAASGSTVGYYDMGWYRQAPGKERELVATITKSGGTTRYADSVKGRFTISRDNAKNTVYLQMNSLKPEDTAVYYCAADGTWRLLDDYWGQGTQVTVSS | low polyreactivity
27 | QVQLVESGGGLVQAGGSLRLSCAASGSTVSPNAMGWDRPAPGKERELVAAITYRGANTYYADSVKGRFTISRDNAKNTVYLQMNSLKPEDTAVYYCAATYGSWISLRFYWGQGTQVTVSS | low polyreactivity
28 | QVQLVESGGGLVQAGGSLRLSCAASGSTVVYYAMGWYRQAPGKERELVAAISSSGGTTYYADSVKGRFTISRDNAKNRVYLQMKSLKPEDTAVYYCAAPYASRGNEYWGQGTQVTVSS | high polyreactivity
29 | QVQLVESGGGLVQAGGSLRLSCAASGSTWWYDMGWSRQAPGKERELVASISSGDSTNYADSVKGRFTISRDNAKNTVYLQMNSLKPEDTAVYYCAADKNSRPAGKGSTGYGYDYWGQGTQVNVSS | low polyreactivity
30 | QVQLVESGGGLVQAGGSLRLSCAASGSTYATNAMRWYRQAPGKERELVATISWSGGSTYYADSVKGRFTISRDNAKNTVYLQMNSLKPEDTAVYYCAADWSNLGAYDYWGQGTQVTVSS | low polyreactivity
31 | QVQLVESGGGLVQAGGSLRLSCAASGSTYFRNAMGWYRQAPGKERELVAAISSSCGSTYYADSVKGRFTISRDNAKNTVYLQMTSLKPEDTAVYYCNADWYYAGYGYWGQGTQVTVSS | low polyreactivity
32 | QVQLVESGGGLVQAGGSLRLSCAASGSTYGIYAMGWYRQAPGKERELVAAITLRTDSTYYADSVKGRFTISRDNAKNTVYLQMNSLKPEVTAVYYCARRYRYGYDYWGQGTQVTVSS | low polyreactivity
33 | QVQLVESGGGLVQAGGSLRLSCAASGSTYHYAMGWYRQAPGKERELVASITWRGDTTYYADSVKGRFTISRDNAKNTVYLQMNSLKPEDTAVYYCAARKFFRQGGKRYDYWGQGTQVTVSS | high polyreactivity
34 | QVQLVESGGGLVQAGGSLRLSCAASGSTYRGYAMGWYRQAPGKERELVAAISWTGGSTYNADSVKGRYTISRDNAKNTVYLQMNSLKPEDTAVYYCNTYVKDWGGYSYRYRYYYWGQGTQVTVSS | high polyreactivity
35 | QVQLVESGGGLVQAGGSLRLSCAASGSTYRYTMGWYRPAPGKERELVAAITGSAGSTYYADSVKGRFTISRDNAKNTVYLQMHSLKPEDTAVYYCNKVRPRKFWDYYYWGQGTQVTVSS | high polyreactivity
36 | QVQLVESGGGLVQAGGSLRLSCAASGSTYRYYAMGWYRQAHGKERELVAAINSSCGSTYYADSVKGRFTISRDNAKNTVYLQMNSLKPEDTAVYYCATVYAYTGWLTNPREYSRYDYWGQGTQVTVSS | low polyreactivity
37 | QVQLVESGGGLVQAGGSLRLSCAASGSTYVSNAMGWYRQAPGKERELVAAISTSGGTTYYADSVKGRFTISRDNAKNTVYLQMNSLKPEDTAVYYCAADYKAYGRSYDYWGQGTQVTVSS | low polyreactivity
38 | QVQLVESGGGLVQAGGSLRLSCAASGSTYYGNAMGWYRQAPGKERQLVAAIRSRGGSTYYADSVKGRFTISRDNAKNTVYLQMNSLKPEDPAVYYCDAKQPSWKYAYYYWGQGTQVTVSS | high polyreactivity
39 | QVQLVESGGGLVQAGGSLRLSCAASGSTYYNAMGWYRQAPGKERELVAAIRFRYGSTYYADSVKGRFTISRDNAKNSVYLQMNSLKPEDTAVYYCADDNKRSWRYAYNYWGHGTQVTVSS | high polyreactivity
40 | QVQLVESGGGLVQAGGSLRLSCAASGSTYYTYAMGWYRQAPGKERELVAAIRGRGGRTYYADSVKGRFTISRDNAKNTVYLQMNSLKPEDTAVYYCNADGYAYYRATTRFDYWGQGTQVTVSS | high polyreactivity
41 | QVQLVESGGGLVQAGGSLRLSCAASGSYLRYYAMGWYRPARGKERELVAAISRSGTNTYYAHSVKGRFTISRDNAKNTVYLQMNSLKPEDTAVYYCAARGYYRDYDSWGQGTQVTVSS | high polyreactivity
42 | QVQLVESGGGLVQAGGSLRLSCAASGTFFIYAMGWYRPAPGKERELVDTISTGGSTNYADSVKGRFTISRDNAKNTVYLQMNSLKPEDTAVYSCAAEWLYPHDGGYPRPMDYWGQGTQVTVSS | low polyreactivity
43 | QVQLVESGGGLVQAGGSLRLSCAASGTFKWYAMGWYSQAPGKERELDAVISSSGGTTYYADSVKGRFTISRDNAKNTVYLQMNSLKPEDTAVYYCNKRFRSWTTGSPYDYWGQGTQVTVSS | high polyreactivity
